Starred links: 1 amine or outer side, 2 acyl side, 3 side chain; linkers in the order of their positions; H or OH if unused. Positions of bridges follow the written chain, without caps; N, C: chain ends. Non-standard residues stand in square brackets, D forms with d. No end group written: not given here. X2 = (2S,4S)‑4‑(4-ferrocenyl-1H-1,2,3-triazol-1-yl)pyrrolidine‑2‑carboxylic acid, O=C([C@@H]1C[C@H](n2cc(-[c-]3cccc3)nn2)CN1[*:1])[*:2].[Fe+2].c1cc[cH-]c1; X3 = (2S,4S)‑4‑(4-ferrocenyl-1H-1,2,3-triazol-1-yl)proline, O=C([C@@H]1C[C@H](n2cc(-[c-]3cccc3)nn2)CN1[*:1])[*:2].[Fe+2].c1cc[cH-]c1; Pro(cis-4-Trz(4-CH2CH2Ph)) = O=C(O)[C@@H]1C[C@H](n2cc(CCc3ccccc3)nn2)CN1; Bta = N[C@@H](Cc1csc2ccccc12)C(=O)O; Gly(cPr) = N[C@H](C(=O)O)C1CC1; Nle = CCCC[C@H](N)C(=O)O; Orn = NCCC[C@H](N)C(=O)O; Dab = NCC[C@H](N)C(=O)O
What was measured:
[1] = target: T1, HIV-1 YU-2 gp120 (wild-type gp120YU-2, monomeric) (HIV-1 (YU-2), UniProt P35961 32-498); assay: SPR competition, sCD4 inhibition: inhibition of gp120 binding to immobilized sCD4
T1 construct: domain: gp120; only gp120 stood in the assay

[2] = target: T1, HIV-1 YU-2 gp120 (wild-type gp120YU-2, …); assay: SPR competition, 17b inhibition: inhibition of gp120 binding to immobilized mAb 17b
[3] = target: HIV-1 BaL.01 envelope on BaL.01 pseudotyped virus (HIV-1 (BaL.01)); assay: cell-based or functional assay
[4] = target: T2, HIV-1 JR-FL envelope (gp120) on JR-FL pseudotyped virus (HIV-1 (JR-FL)); assay: cell-based or functional assay
[5] = target: T2, HIV-1 JR-FL envelope (gp120) on JR-FL …; assay: cell-based or functional assay; remark: listed apart in the source
[6] = target: T1, HIV-1 YU-2 gp120 (wild-type gp120YU-2, …); assay: SPR competition (Biacore 3000): 250 nM gp120 YU-2 with increasing peptide over immobilised mAb 17b
[7] = target: T1, HIV-1 YU-2 gp120 (wild-type gp120YU-2, …); assay: SPR competition: fixed 250 nM HIV-1 YU-2 gp120 with increasing peptide passed over immobilized sCD4; inhibition of gp120 binding to sCD4
[8] = target: T1, HIV-1 YU-2 gp120 (wild-type gp120YU-2, …); assay: SPR competition (Biacore 3000): 250 nM gp120 YU-2 with increasing peptide over immobilised sCD4
[9] = target: T1, HIV-1 YU-2 gp120 (wild-type gp120YU-2, …); assay: SPR competition: fixed 250 nM HIV-1 YU-2 gp120 with increasing peptide passed over immobilized mAb 17b; inhibition of gp120 binding to 17b
[10] = target: T1, HIV-1 YU-2 gp120 (wild-type gp120YU-2, …); assay: SPR competition: fixed 250 nM HIV-1 YU-2 gp120 with increasing peptide passed over immobilized sCD4; inhibition of gp120 binding to sCD4; remark: listed apart in the source
[11] = target: T1, HIV-1 YU-2 gp120 (wild-type gp120YU-2, …); assay: SPR competition on gp120; which of sCD4 or 17b is not said
[12] = target: T1, HIV-1 YU-2 gp120 (wild-type gp120YU-2, …); assay: SPR competition binding assay on gp120
[13] = target: T1, HIV-1 YU-2 gp120 (wild-type gp120YU-2, …); assay: SPR competition: fixed 250 nM HIV-1 YU-2 gp120 with increasing peptide passed over immobilized sCD4; inhibition of gp120 binding to sCD4; remark: listed apart in the source
[14] = target: T1, HIV-1 YU-2 gp120 (wild-type gp120YU-2, …); assay: SPR competition: fixed 250 nM HIV-1 YU-2 gp120 with increasing peptide passed over immobilized mAb 17b; inhibition of gp120 binding to 17b; remark: listed apart in the source
[15] = target: T1, HIV-1 YU-2 gp120 (wild-type gp120YU-2, …); assay: >
[16] = target: T1, HIV-1 YU-2 gp120 (wild-type gp120YU-2, …); assay: SPR competition (Biacore 3000): 250 nM gp120 YU-2 with increasing peptide over immobilised mAb 17b; inhibition of mAb 17b binding to gp120
[17] = target: T1, HIV-1 YU-2 gp120 (wild-type gp120YU-2, …); assay: SPR competition (Biacore 3000): 250 nM gp120 YU-2 with increasing peptide over immobilised sCD4; inhibition of CD4 binding to gp120

Binder | IC50 [1] [nM] | IC50 [2] [nM] | IC50, HIV-1 infection inhibition, Bal.01 pseudotyped virus [3] [nM] | also measured
DNI[Pro(cis-4-Trz(4-CH2CH2Ph))]W[Orn]-NH2 (lactam 1-6; N-terminus assumed; SMILES CC[C@H](C)[C@@H]1NC(=O)[C@H](CC(N)=O)NC(=O)[C@@H](N)CC(=O)NCCC[C@@H](C(N)=O)NC(=O)[C@H](Cc2c[nH]c3ccccc23)NC(=O)[C@@H]2C[C@H](n3cc(CCc4ccccc4)nn3)CN2C1=O) [AAR031] | 5700 | 3900 | – | –
ENI[Pro(cis-4-Trz(4-CH2CH2Ph))]W[Dab]-NH2 (lactam 1-6, also called macrocycle AAR030) [AAR030] | > 20000 | > 20000 | – | –
DNI[X2]WK-NH2 (lactam 1-6, Ferrocenyl analogue of AAR029) [AAR029b] | 32 | 35 | 210 | IC50, HIV-1 infection inhibition, JR-FL pseudotyped virus [4]: 190 nM; gp120 shedding EC50 (JR-FL pseudotyped virus, Western blot densitometry of supernatant) [5]: 316 nM
DNI[(2S,4S)‑4‑(4-(4-ethylphenyl)-1H-1,2,3-triazol-1-yl)pyrrolidine‑2‑carboxylic acid]WK-NH2 (lactam 1-6) [AAR029H] | ~318 | ~245 | ~1900 | –
ENNI[Pro(cis-4-Trz(4-CH2CH2Ph))]WK-NH2 (lactam 1-7; N-terminus assumed; SMILES CC[C@H](C)[C@@H]1NC(=O)[C@H](CC(N)=O)NC(=O)[C@H](CC(N)=O)NC(=O)[C@@H](N)CCC(=O)NCCCC[C@@H](C(N)=O)NC(=O)[C@H](Cc2c[nH]c3ccccc23)NC(=O)[C@@H]2C[C@H](n3cc(CCc4ccccc4)nn3)CN2C1=O, Cyclic peptide triazole) [AAR026] | 541 | – | – | IC50 [6]: 384 nM; IC50 [7]: 541 nM; IC50 [8]: 540 nM
DN[Nle][X2]WK-NH2 (lactam 1-6) [AAR036] | ~2000 | ~2000 | – | –
DNI[X2][Bta]K-NH2 (lactam 1-6) [AAR029E] | ~20 | ~20 | 26 | –
DN[Gly(cPr)][X2]WK-NH2 (lactam 1-6) [AAR042] | ~2000 | ~2000 | – | –
DNI[(2S,4S)‑4‑(4-(adamantan-2-yl)-1H-1,2,3-triazol-1-yl)pyrrolidine‑2‑carboxylic acid]WK-NH2 (lactam 1-6) [AAR029F] | ~200 | ~200 | ~1300 | –
DNI[Pro(cis-4-Trz(4-CH2CH2Ph))]WK-NH2 (lactam 1-6, Cyclic hexapeptide triazole; also called minimized hexapeptide AAR029; macrocycle AAR029) [AAR029] | – | – | 2020 | IC50 [9]: 95.5 nM; IC50 [10]: 85.2 nM; IC50 [6]: 96 nM; fold more active than AAR029A [11]: > 200 fold; IC50, HIV-1 infection inhibition, JR-FL pseudotyped virus [4]: 2330 nM; fold enhanced activity vs AAR029b [12]: ~2 fold; IC50 [8]: 85 nM
IENI[Pro(cis-4-Trz(4-CH2CH2Ph))]WK-NH2 (N-terminus assumed; SMILES CC[C@H](C)[C@H](N)C(=O)N[C@@H](CCC(=O)O)C(=O)N[C@@H](CC(N)=O)C(=O)N[C@H](C(=O)N1C[C@@H](n2cc(CCc3ccccc3)nn2)C[C@H]1C(=O)N[C@@H](Cc1c[nH]c2ccccc12)C(=O)N[C@@H](CCCCN)C(N)=O)[C@@H](C)CC, Acyclic (linear) counterpart of AAR024; also called acyclic analogue of AAR024; linear AAR024A) [AAR024A] | 7890 | 11300 | – | IC50 [13]: 7890 nM; IC50 [14]: 11300 nM; fold less active than AAR024 [15]: 50 fold
DNI[Pro(cis-4-Trz(4-CH2CH2Ph))]W[Dab]-NH2 (lactam 1-6; N-terminus assumed; SMILES CC[C@H](C)[C@@H]1NC(=O)[C@H](CC(N)=O)NC(=O)[C@@H](N)CC(=O)NCC[C@@H](C(N)=O)NC(=O)[C@H](Cc2c[nH]c3ccccc23)NC(=O)[C@@H]2C[C@H](n3cc(CCc4ccccc4)nn3)CN2C1=O) [AAR032] | 500 | 400 | – | fold improvement vs AAR031 [12]: ~10 fold
IENI[Pro(cis-4-Trz(4-CH2CH2Ph))]WK-NH2 (lactam 2-7; N-terminus assumed; SMILES CC[C@H](C)[C@H](N)C(=O)N[C@H]1CCC(=O)NCCCC[C@@H](C(N)=O)NC(=O)[C@H](Cc2c[nH]c3ccccc23)NC(=O)[C@@H]2C[C@H](n3cc(CCc4ccccc4)nn3)CN2C(=O)[C@H]([C@@H](C)CC)NC(=O)[C@H](CC(N)=O)NC1=O, Cyclic peptide triazole; also called cyclic heptapeptide AAR024) [AAR024] | – | – | – | IC50 [16]: 269 nM; fold more active than the linear AAR024A [11]: > 40 fold; IC50 [17]: 138 nM
IENI[X3]WK-NH2 (lactam 2-7, Ferrocenyl analogue of AAR024) [AAR024b] | 40 | 37.6 | 650 | IC50, HIV-1 infection inhibition, JR-FL pseudotyped virus [4]: 603 nM

Source: patent publication US20190175688A1 (DREXEL UNIVERSITY, published 2019)
